Results from patent publication US20200055937A1 (REMD BIOTHERAPEUTICS, published 2020).
Residue numbers refer to the chain shown, from its start.

T1: CTLA4-Fc (UniProt P16410 36-161, limits assumed)
T1 sequence (looked up): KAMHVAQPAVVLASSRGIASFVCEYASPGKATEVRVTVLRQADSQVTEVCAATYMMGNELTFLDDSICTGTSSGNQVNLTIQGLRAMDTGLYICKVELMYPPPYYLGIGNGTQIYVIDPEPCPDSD

T2: CTLA4-his (UniProt P16410 36-161, limits assumed)
T2 construct: construct not described; also called Ag CTLA4-his; Antigen CTLA4-his; not shown: his tag
T2 sequence (looked up): T1 sequence (looked up)

T3: cyno Macaque CTLA-4 (cyno Macaque, UniProt G7PL88 36-161)
T3 construct: ELISA antigen; construct not described; also called CynoCTLA-4; cyno CTLA-4
T3 sequence: T1 sequence (looked up) with S14N, I18T, L106M

T4: human CTLA-4 (human, UniProt P16410 36-161, limits assumed)
T4 construct: also called HuCTLA-4; human cytotoxic T lymphocyte antigen-4
T4 sequence: T1 sequence (looked up)

B1: Humanized Ab 15 (VH7 + VL3) (antibody, human IgG1, kappa, V domains shown)
VH: QVQLVQSGAEVVKPGASVKISCKASGYKFTDHFINWVKQNPGQGLEWIGDINPNNGGTNSNQKFEGKATLTVDKSISTAYMELRRLRSDDTAVYYCARLRREYFYAMDYWGQGTLVTVSS
VL: DIVMTQSPLSLPVTPGEPASISCRSSKSLLHSNGITYLYWYLQKPGQSPQLLIYQMSNLASGVPDRFSSSGSGTDFTLKISRVEAEDVGVYYCAQNLELPLTFGGGTKLEIKR
notes: Humanized IgG1 derived from MAb A4
B2: chimeric IgG (antibody, V domains shown)
VH: EVQLRQSGPELVKPGTSVKISCKASGYKFTDHFINWVKQNHGKSLEWIGDINPNNGGTNSNQKFEGKATLTVDKSSSTAYMELRSLTSEDSAVYYCARLRREYFYAMDYWGQGTSVTVSS
VL: B1 VL with S7A, P8A, L9F, L11N, P15L, E17T, P18S, K79R, G105A, I111L
notes: Variable domains of MAb A4 on human IgG1 and kappa, expressed in HEK293; also called murine-human chimeric antibody derived from murine antibody A4
B3: MAb A1 (16A9E9) (antibody, V domains shown)
VH: DVQLQESGPGLVKPSQSLSLTCSVTGDSITSGYYWNWIRQFPGNKLEWMGYISYDGINNYYPSLENRISITRDTSRNQFFLKLNSVTTEDTATYYCAREVVTPGVEVPAWYFDVWGTGTTVTVSS
VL: DIVLTQSPTSLTVSLGQRAIISCKASQSVSFAGTGLMHWYQQKPGQQPKLLIYRASNLEAGVPTRFSGSGSRTDFTLNIHPVEEDDAATYYCQQSREYPWTFGGGTTLEIN
notes: also called murine antibody A1
B4: MAb A4 (13F10D7) (antibody, V domains shown)
VH: B2 VH
VL: DIVMTQAAFSNPVTLGTSASISCRSSKSLLHSNGITYLYWYLQKPGQSPQLLIYQMSNLASGVPDRFSSSGSGTDFTLRISRVEAEDVGVYYCAQNLELPLTFGAGTKLELK
notes: also called Murine MAb A4; murine antibody A4

Key:
[1] = biological target: T1, CTLA4-Fc; assay: cell-based or functional assay
[2] = biological target: T2, CTLA4-his; assay: SPR Biacore 8k, purified antibody captured on chip, CTLA4-his as analyte
Method: (§1) The affinities of purified antibody binding to CTLA4-his was determined using a Surface Plasmon Resonance (SPR) biosensor, Biacore 8k. Antibodies were immobilized on the sensor chip through capture method. Antigen CTLA4-his was used as the analyte. The data of dissociation (kd) and association (ka) rate constants were obtained using Biacore 8k evaluation software. The equilibrium dissociation constants (KD) were calculated from the ratio of kd over ka.

[3] = biological target: T2, CTLA4-his; assay: SPR Biacore T200, antibody from supernatant captured by anti-human Fc, CTLA4-his injected
Method: (§2) Affinity ranking of the fifteen humanized antibodies was determined using a Surface Plasmon Resonance (SPR) biosensor, Biacore T200 (GE Healthcare). Anti-human Fc gamma specific antibody was immobilized onto the sensor chip using amine coupling method. […] After equilibration, Ag CTLA4-his was injected for 300 seconds (association phase) followed by the injection of running buffer for 600s (dissociation phase). Responses of reference flow cell (flow cell 1) were subtracted from those of humanized antibodies flow cells during each cycle. The surface was regenerated before the injection of other humanized antibodies. The process was repeated until all antibodies are analyzed. The off-rates of humanized antibodies were obtained from fitting the experimental data locally to 1:1 interaction model using the Biacore 8K evaluation software. The antibodies were ranked by their dissociation rate constants (off-rates, kd).

[4] = biological target: T2, CTLA4-his; assay: SPR Biacore T200, antibody from supernatant captured by anti-human Fc, CTLA4-his injected; supernatant antibody, off-rate ranking, 600 s dissociation
Method: as §2

[5] = biological target: T1, CTLA4-Fc; assay: SPR Biacore T200, CTLA4-Fc amine-coupled, antibody as analyte
Method: (§3) Antigen CTLA4-Fc was immobilized on the sensor chip through amine coupling method. Antibody was used as the analyte. The data of dissociation (kd) and association (kₐ) rate constants were obtained using Biacore T200 evaluation software. The apparent equilibrium dissociation constants (KD) were calculated from the ratio of kd over kₐ.

[6] = biological target: T1, CTLA4-Fc; assay: SPR Biacore T200, CTLA4-Fc amine-coupled, antibody as analyte; apparent KD
Method: as §3

[7] = biological target: T2, CTLA4-his; assay: SPR Biacore 8k, purified antibody captured on chip, CTLA4-his as analyte; purified antibody, Biacore 8k
Method: as §1

[8] = biological target: T1, CTLA4-Fc; assay: cell-based or functional assay; remark: listed apart in the source
[9] = biological target: T3, cyno Macaque CTLA-4; assay: ELISA, cyno CTLA-4 binding
[10] = biological target: T4, human CTLA-4; assay: ELISA, human CTLA-4 binding
[11] = biological target: T5, murine CTLA-4 (murine, UniProt P09793 36-161, limits assumed); assay: ELISA, murine CTLA-4 binding assay
T5 construct: ELISA antigen; construct not described; also called mouse CTLA-4

[12] = biological target: T4, human CTLA-4; assay: ligand blocking assay with purified proteins; competitor CD86
[13] = biological target: T4, human CTLA-4; assay: ratio of the IC50 for blocking CD80 to the IC50 for blocking CD86 on CTLA-4
[14] = biological target: T4, human CTLA-4; assay: ligand blocking assay with purified proteins; competitor CD80; CD80 as competing ligand, purified proteins
[15] = biological target: T4, human CTLA-4; assay: ligand blocking assay with purified proteins; competitor CD80
[16] = biological target: T2, CTLA4-his; assay: SPR Biacore 8k, purified antibody captured on chip, CTLA4-his as analyte (as the text says; same values as Table 5)

| Binder | Kd [2] | kon [2] | Kd [3] | kon [3] | koff [5] | kon [5] | Kd [6] | IC50 (nM), IL-2 secreted by Jurkat cells co-cultured with CHO/CD80 cells, Experiment 1 [8] | IC50 (nM), IL-2 secreted by Jurkat cells co-cultured with CHO/CD80 cells, Experiment 2 [8] | EC50 [9] | EC50 [10] | binding result [11] | IC50 [12] | CD80/CD86 Blocking Ratio [13] | further results |
| --- | --- | --- | --- | --- | --- | --- | --- | --- | --- | --- | --- | --- | --- | --- | --- |
| B1 | 0.0142 nM | 727000 M⁻¹ s⁻¹ | ≤ 0.0472 nM | 212000 M⁻¹ s⁻¹ | – | – | – | – | – | – | – | – | – | – | IC50 (nM), Jurkat cell activation assay of Example 2 (IL-2) [1]: 3.1 nM; koff [2]: 1.03e-05 s⁻¹; koff [4]: ≤ 1e-05 s⁻¹ |
| B2 | 0.0131 nM | 765000 M⁻¹ s⁻¹ | 0.0602 nM | 430000 M⁻¹ s⁻¹ | 5.09e-05 s⁻¹ | 621000 M⁻¹ s⁻¹ | 0.082 nM | – | – | – | – | – | – | – | koff [3]: 2.59e-05 s⁻¹; koff [7]: ≤ 1e-05 s⁻¹ |
| B3 | – | – | – | – | – | – | – | 19.3 nM | 18.5 nM | 0.01 nM | 0.058 nM | no binding | 0.365 nM | 6.49 | IC50 [14]: 2.37 nM |
| B4 | – | – | – | – | 0.000551 s⁻¹ | 573000 M⁻¹ s⁻¹ | 0.963 nM | 11 nM | 13.2 nM | 0.024 nM | 0.034 nM | no binding | 0.287 nM | 2.01 | IC50 [15]: 0.579 nM; Kd [16]: 0.963 nM; koff [16]: 0.000551 s⁻¹; kon [16]: 573000 M⁻¹ s⁻¹ |
